Results taken from US20260274948A1 (AUTOLUS, published 2026).
Residue numbers refer to the chain shown, from its start.

B1: Jovi Hum 8 (antibody, V domains shown)
VH: QVQLVQSGAEVKKPGASVKVSCKASGYTFTGYVMHWVRQAPGQGLEWMGFINPYNDDIQSNERFRGRVTMTRDTSISTAYMELSRLRSDDTAVYYCARGAGYNFDGAYRFFDFWGQGTMVTVSS
VL: DIVMTQSPLSLPVTPGEPASISCRSSQRLVHSNGNTYLHWYLQKPGQSPRLLIYRVSNRFPGVPDRFSGSGSGTDFTLKISRVEAEDVGVYYCSQSTHVPYTFGQGTKLEIK
notes: H-AF 1 carries no back-mutation (Q3, V20, M48, R71, T73), i.e. the plain H-AF062256 graft; also called H-AF 1; H-AF1, 3aaz
B2: Jovi Hum 16 (antibody, V domains shown)
VH: B1 VH with T74K
VL: B1 VL
notes: also called H-AF 2
B3: Jovi Hum 18 (antibody, V domains shown)
VH: B1 VH with R72S, T74K
VL: B1 VL
notes: also called H-AF 4
B4: Jovi Hum 20 (antibody, V domains shown)
VH: B1 VH with M48I, T74K
VL: B1 VL
notes: also called H-AF 6
B5: Jovi Hum 19 (antibody, V domains shown)
VH: B1 VH with M48I
VL: B1 VL
notes: also called H-AF 5
B6: Jovi Hum 17 (antibody, V domains shown)
VH: B1 VH with R72S
VL: B1 VL
notes: also called H-AF 3
B7: Jovi Hum 26 (antibody, V domains shown)
VH: B1 VH with V20M, R72S, T74K
VL: B1 VL
notes: also called H-AF 12
B8: Jovi Hum 27 (antibody, V domains shown)
VH: B1 VH with V20M, M48I
VL: B1 VL
notes: also called H-AF 13

Target: T1, TRBC2 (T-cell receptor beta constant region 2) (human, UniProt A0A5B9 1-129, limits assumed)
T1 construct: also called TCR beta-constant region 2
Experiment: ELISA

T1 sequence (A0A5B9 1-129 limits assumed): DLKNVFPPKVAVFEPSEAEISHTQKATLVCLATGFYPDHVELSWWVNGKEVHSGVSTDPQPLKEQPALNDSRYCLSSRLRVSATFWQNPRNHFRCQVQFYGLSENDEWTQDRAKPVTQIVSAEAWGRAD

Binding result, no binding:
B1
B2
B3
B4
B5
B6
B7
B8
